From patent publication US10450573B2, “Compositions and methods for regulation of gene expression with, and detection of, folinic acid and folates” (The Board of Trustees of the Leland Stanford Junior …, priority 2014, dated 2019)

Experiments:
GFP expression = test: miRNA switch silencing activity on GFP in mammalian cells; type: cell-based; conditions: folinic acid
Text: Ligand-responsive, microRNA (miRNA) switches have been developed that modulate Drosha processing. These switches integrate an aptamer into the basal segments of a miRNA. Internal loop size contained within the basal segments affects Drosha processing and therefore the levels of miRNA-mediated gene silencing. By integrating an aptamer within the basal segments, unbound aptamer can remain relatively unstructured, while ligand binding can sequester nucleotides involved in binding and inhibit Drosha processing.
Aptamer integration into this switch platform requires two integration stems; therefore, aptamer FA8-3 was chosen. Separate studies on using this aptamer in a transmitter-based switch observe that an internal loop within the aptamer could be expanded while retaining ligand binding ability. This loop was expanded to the previously identified optimal loop size and integrated into the miRNA switch that targets GFP. A single copy of the miRNA switch enables up to 2.1-fold change in GFP expression (FIG. 26b); including two copies yields up to 2.6-fold change (FIG. 26c). Additional copies of the switch would be expected to further increase the achievable activation ratio, as would specific use of (6R)-folinic acid.

[1] = Surface plasmon resonance aptamer binding assay, (6R)-folinic acid; conditions: for Selectivity: between (6R)- and (6S)-folinic acid diastereomers
Method: (§1) Surface plasmon resonance characterization of aptamer binding properties. Nucleic acid aptamer preparation. RNA aptamers were prepared by PCR amplification of DNA template sequences (Table 4, Integrated DNA Technologies, Coralville, Iowa) using forward and reverse primers Biacore-fwd and Biacore-rev, respectively, followed by transcription of the PCR product using the MEGAshortscript T7 transcription kit (Life Technologies) and purification of the transcription product using the RNA Clean & Concentrator kit (Zymo Research, Irvine, Calif.), according to the manufacturers' instructions. Aptamers were resuspended in selection buffer, denatured at 65° C. for 5 min, and cooled to room temperature directly before use.
(§2) Sensor chip surface generation. Experiments were performed on a Biacore X100 instrument (GE Healthcare) at 25° C. A CM5 sensor chip (GE Healthcare) was equilibrated with HBS-N buffer. The DNA linker strand (5′-AmMC6-[…]) (Integrated DNA Technologies) (SEQ ID NO:133), with an amino modified 6-carbon linker on the 5′ end, was immobilized to the chip surface. The carboxymethylated dextran surface of the CM5 chip was activated for 7 min at a flow rate of 10 μL/min using a 1:1 volume ratio of 0.4 M 1-ethyl-3-(3-dimethylaminopropyl) carbodiimide (GE Healthcare) and 0.1 M N-hydroxysuccinimide (GE Healthcare). A molar ratio of 1:30 of DNA strand to hexadecyltrimethylammonium bromide (Sigma-Aldrich, St. Louis, Mo.) was diluted in 10 mM HEPES buffer (Sigma-Aldrich) to a final concentration of 20 μM and 0.6 mM, respectively, and injected over the activated surface for 10 min at a flow rate of 5 μL/min. Excess activated groups were blocked by an injection of 1 M ethanolamine (GE Healthcare), pH 8.5, for 7 min at a flow rate of 10 μL/min. The immobilization reaction was performed sequentially on both flow cells (FC1, FC2) and yielded approximately 4,000 RU of the DNA strand.
(§3) Aptamer binding assay. The Biacore X100 instrument was primed three times with running buffer prior to all binding assays. For each assay, three startup cycles were performed to stabilize the sensorgram baseline. For each startup cycle, the aptamer (˜40-70 ng/μL, ˜3 μM) was captured onto the sample flow cell (FC2) for 40 s at a flow rate of 5 μL/min. 25 mM NaOH (GE Healthcare) was injected for 30 s at a flow rate of 30 μL/min over both flow cells to regenerate the sensor surface. A dilution series of (6R)- or (6S)-folinic acid (Schircks Laboratories, Jona, Switzerland) was prepared in selection buffer and filtered through a 0.2 μm membrane (Pall Corporation, Port Washington, N.Y.). For each concentration sample, the aptamer was captured onto the sample flow cell (FC2) for 40 s at a flow rate of 5 μL/min, the folinic acid solution was injected over both flow cells at a flow rate of 30 μL/min to monitor target association, and selection buffer was injected over both flow cells at a flow rate of 30 μL/min to monitor target dissociation. Association and dissociation phase lengths used were chosen based on time needed to reach equilibrium. Aptamer and folinic acid were removed from the sensor surface by injecting 25 mM NaOH for 30 s at a flow rate of 30 μL/min over both flow cells.
(§4) Data processing and analysis were performed using Biacore X100 Evaluation Software version 2.0 (GE Healthcare). A double-referencing method was performed to process all datasets. Data from the sample flow cell (FC2) were referenced first by subtracting data from the reference flow cell (FC1) to correct for bulk refractive index changes, nonspecific binding, injection noise, matrix effects, and baseline drift. Reference-subtracted data (FC2−FC1) were double-referenced with a blank injection of running buffer to account for any systematic drift over the course of the injection. Double-referenced data were fit to a 1:1 binding model for kinetic analysis or steady-state affinity model for thermodynamic analysis. […]

[2] = SPR binding to (6R,S)-5-methyl-5,6,7,8-tetrahydrofolic acid; conditions: ligand is mixture of (6R) and (6S) diastereomers, read-out: KD, (6R,S)-5-methyl-THF
[3] = SPR binding to (6R,S)-5-formyl-5,6,7,8-tetrahydropteroic acid; conditions: ligand is mixture of (6R) and (6S) diastereomers
[4] = SPR equilibrium binding to folate derivative (6R)-tetrahydrobiopterin; conditions: N.D. = non-detectable levels of binding, read-out: KD, (6R)-Tetrahydrobiopterin (THB)
[5] = Surface plasmon resonance aptamer binding assay, (6S)-folinic acid; conditions: SPR, 25° C., selection buffer pH 7.4, 5 mM MgCl2
Method: as §1, §2, §3, §4

[6] = SPR screen of truncated or mutated aptamers for folinic acid binding (qualitative)
Method: Full length sequences were amplified off of sequencing PCR products using primers N70-fwd-short and Biacore-N70-rev to append a poly(A) tail. Truncated or mutated sequences were synthesized by Integrated DNA Technologies or the Protein and Nucleic Acid facility (Stanford, Calif.).
as §1
Sensor chip surface generation. Experiments were performed on a Biacore X100 instrument (GE Healthcare) at 25° C. A CM5 sensor chip (GE Healthcare) was equilibrated with HBS-N buffer. The DNA linker strand (5′-AmMC6-[…]) (Integrated DNA Technologies) (SEQ ID NO:133), with an amino modified 6-carbon linker on the 5′ end, was immobilized to the chip surface. […]

[7] = SPR, 1:1 binding model, 25° C., selection buffer pH 7.4, 5 mM MgCl2
[8] = SPR, 25° C., selection buffer pH 7.4, 5 mM MgCl2

Molecule	change in GFP expression (GFP expression; single copy of the miRNA switch)	change in GFP expression (GFP expression; two copies of the miRNA switch)	ka, (6R)-Folinic Acid [1, 7]	kd, (6R)-Folinic Acid [1, 7]	Kd [1, 8]	Selectivity [1]	Kd [2]	ka, (6R,S)-5-formyl-THPteroic Acid [3]	kd, (6R,S)-5-formyl-THPteroic Acid [3]	Kd ([3]; read-out: KD, (6R,S)-5-formyl-THPteroic Acid)	Kd [4]	Kd [5]	folinic acid binding (qualitative) [6]	ka, (6S)-Folinic Acid ([5]; 1:1 binding model)	kd, (6S)-Folinic Acid ([5]; 1:1 binding model)
miRNA switch: folinic acid-responsive miRNA switch with aptamer FA8-3 that targets GFP, SEQ ID NO: 57 (nucleic acid, Synthetic nucleic acid) AATAACCGGTGCGATCGCGAACGGGTCCTCACTACCCCTCGAAATCACGAGGGAGACGAGATAAGAGCGACGGCGGAGCGAGCACAAGCTGGAGTACAACTATAGTGAAGCCACAGATGTATAGTTGTACTCCAGCTTGTGCCCGCCTTGCCAACCATAACGTCTGGTCACGACCGTAGTAAGGGCCCGTTTTTAATTAAATCGATTATT	up to 2.1 fold	up to 2.6 fold													
tFA8-3: truncated (6R)-FA specific RNA aptamer, SEQ ID NO: 19 (nucleic acid, unmodified RNA) UUUGCCAACGUCUGGUCACGACCGUAGUACACUACCCCUCGAAAUCACGAGGGAGACGAGAUAGGCGGA			459000 M⁻¹ s⁻¹	0.0217 s⁻¹	0.0473 µM	606	0.158 µM	305000 M⁻¹ s⁻¹	0.0292 s⁻¹	0.0957 µM	1.6 µM	28.6 µM			
tFA8-14: truncated (6S)-FA specific RNA aptamer, SEQ ID NO: 25 (nucleic acid, unmodified RNA) CCGCGCAAGUGCAUUAACGGUGACACCGAAAGCUGGAAAGCCUGACAUCGAACGCAAAAGGCUGCGUGG					10200 µM	71,100						0.144 µM	maintains binding	89200 M⁻¹ s⁻¹	0.0128 s⁻¹
